This note sets out measurements from patent US20090215197A1, “TARGET SUBSTANCE CAPTURING MOLECULE” (CANON KABUSHIKI KAISHA, published 2009).

For assay [1], the target named is T1, Maltose-binding protein (MBP) (Escherichia coli (strain K12), UniProt P0AEX9 = MBP). As to the kind of experiment: SPR (BIAcore), MBP immobilized on CM5 chip, 0.1% Tween 20/PBS, 25 C. (In general: SPR reads the build-up and loss of mass on a sensor chip optically.)
The target in assay [2] is T1, Maltose-binding protein (MBP). As to the kind of experiment: SPR (BIAcore), same manner as in Example 10 (MBP immobilized on CM5 chip). The method, then: In comparison with the single stranded MBP-bound VHH/MBP-bound ankyrine fused protein obtained in Example 4, and the MBP-bound VHH-Jun/MBP-bound ankyrine Fos hetero dimer obtained in Example 9, the MBP bound antibody domain (VHH), which is a single domain protein bound to MBP and represented by Sequence ID No. 2 and the MBP-bound ankyrine represented by Sequence ID No. 6 were evaluated by SPR (manufactured by BIAcore). As a substrate, CM5 (manufactured by BIAcore) is used. MBP is immobilized onto the substrate in accordance with the method recommended by the manufacturer. The MBP immobilized chip thus obtained is subjected to evaluation under the conditions: running Buffer: 0.1% Tween 20/PBS, flow rate: 20 μL/min, and temperature: 25° C. […] The capturing molecule according to the present invention has a high binding ability, compared to the capturing molecule known in the art binding to a target substance at a single epitope (or single site).
MBP-bound VHH-Jun fusion protein and MBP-bound peptide-Fos fusion protein hetero dimer obtained in Example 14 was evaluated for SPR (manufactured by BIAcore) in the same manner as in Example 10.

B1: MBP-bound VHH-Jun/MBP-bound ankyrine Fos hetero dimer (other)
chain 1: PWQVQLQESGPGLLKPSETLFLTCTVSGFSISGGYYWGWFRQPPGKEREWIGSVYHSGSTYYNKSLESRVTISIHTSESQISLKLNSVTAADTAVYSCARYRTAHPLWGQGTMVTVSSEFGGGGSGGGGSGGGGSRIARLEEKVKTLKAQNSELASTANMLREQVAQLKQKVMNYFGC
chain 2: PWNAADNTGTTPLHLAAYSGHLEIVEVLLKHGADVDASDVFGYTPLHLAAYWGHLEIVEVLLKNGADVNAMDSDGMTPLHLAAKWGYLEIVEVLLKHGADVNAQDKFGKTAFDISIDNGNEDLAEILQEFGGGGSGGGGSGGGGSLTDTLQAETDQLEDKKSALQC
For the molecule B1, in assay [1], the Kd (as a rule, the constant that tells how readily two partners part at equilibrium) was found to be 1 nM.

B2: MBP-bound VHH-Jun fusion protein and MBP-bound peptide-Fos fusion protein hetero dimer (other)
chain 1: B1 chain 1
chain 2: TPIHRRRQFNTGEFGGGGSGGGGSGGGGSLTDTLQAETDQLEDKKSALQTEIANLLKEKEKLEFILAAYRLC
Take B2: the Kd in assay [2] was 10 nM.

B3: MBP bound antibody domain (VHH) (VHH)
VHH: QVQLQESGPGLLKPSETLFLTCTVSGFSISGGYYWGWFRQPPGKEREWIGSVYHSGSTYYNKSLESRVTISIHTSESQISLKLNSVTAADTAVYSCARYRTAHPLWGQGTMVTVSS
In the case of B3, the Kd in assay [1] came to 1000 nM.
